Holding throughout (assay): cell-based or functional assay
Assay [1] addresses HIV-1 92RW020 envelope glycoprotein (Env) on pseudovirus (HIV-1).
Assay [2] has as its target HIV-1 CMU02 envelope glycoprotein (Env) on pseudovirus (HIV-1).
Assay [3] has as its target HIV-1 Env of isolate 92UG024 (clade D pseudovirus) (HIV-1).
The target of assay [4] is HIV-1 Env of isolate 93TH305, clade B, on pseudovirus (HIV-1).
Assay [5] concerns the target HIV-1 Env of isolate MGRM-D-016 (clade D pseudovirus) (HIV-1).
In assay [6] the target is HIV-1 Env of isolate QH0692.42 (Acute), clade B, on pseudovirus (HIV-1).
In assay [7] the target is HIV-1 Env of isolate VLGCA1 (clade A pseudovirus) (HIV-1).
The target in assay [8] is HIV-1 Env of pseudovirus MGRM-AE-007 (clade CRF01_AE) (HIV-1).
Assay [9] addresses HIV-1 Env of pseudovirus MGRM-AG-001 (clade CRF_AG) (HIV-1).
In assay [10] the target is HIV-1 Env of pseudovirus MGRM-AG-008 (clade CRF_AG) (HIV-1).
Assay [11] deals with HIV-1 Env of pseudovirus MGRM-AG-009 (clade CRF_AG) (HIV-1).
Assay [12] deals with HIV-1 Env of pseudovirus MGRM-Chronic-B-010 (HIV-1).
In assay [13] the target is HIV-1 Env of pseudovirus MGRM-Chronic-B-011 (HIV-1).
Assay [14] addresses HIV-1 Env of pseudovirus MGRM-F1-018 (HIV-1).
Assay [15] deals with HIV-1 IAVI-C18 envelope glycoprotein (Env) on pseudovirus (HIV-1).
Assay [16] addresses HIV-1 IAVI-C3 envelope glycoprotein (Env) on pseudovirus (HIV-1).
Assay [17] deals with HIV-1 envelope glycoprotein (Env) of isolate 94KE105, listed under clade A (HIV-1).
In assay [18] the target is HIV-1 envelope glycoprotein (Env) of isolate MGRM-A-001, clade A (HIV-1).
Assay [19] has as its target HIV-1 envelope glycoprotein (Env) of isolate MGRM-A-004, clade A (HIV-1).
Assay [20] addresses envelope protein of aMLV pseudovirus (negative control).

The IC50 is the point on the concentration scale where inhibition reaches its midpoint. Low readings indicate greater potency in that assay, high ones weaker potency in that assay.

For b12 (antibody), the IC50, pseudovirus neutralization in assay [1] was greater than 50 µg/mL; in assay [2] it was 4.25 µg/mL; in assay [15], greater than 50 µg/mL; in [16], 5 µg/mL. Moreover, the IC50 (µg/ml), pseudovirus neutralization in assay [3] is 45.6 µg/mL; in assay [4], 4.17 µg/mL; in assay [5] it was 1.12 µg/mL; in assay [6], 0.73 µg/mL; in [7] it was greater than 50 µg/mL; in assay [12], greater than 50 µg/mL. Moreover, the IC50 (µg/ml), pseudovirus neutralization is 2.11 µg/mL in assay [13]; greater than 50 µg/mL in assay [14]; greater than 50 µg/mL in [17]; greater than 50 µg/mL in assay [18]; greater than 50 µg/mL in assay [19]; greater than 50 µg/mL in assay [20]. The IC50 in [8] was greater than 50 µg/mL; in [9], 11.9 µg/mL; in assay [10] it was greater than 50 µg/mL; in assay [11], greater than 50 µg/mL.

With 2F5 (antibody), the IC50, pseudovirus neutralization in assay [1] is 3.37 µg/mL; in assay [2], 0.38 µg/mL; in [15] it was greater than 50 µg/mL; in [16], greater than 50 µg/mL. Further, the IC50 (µg/ml), pseudovirus neutralization in assay [3] was 0.95 µg/mL; in assay [4] it was 7.61 µg/mL; in [5], 9.85 µg/mL; in assay [6], 5.42 µg/mL; in assay [7], 3.9 µg/mL; in assay [12], 0.96 µg/mL. The IC50 (µg/ml), pseudovirus neutralization in [13] was 0.81 µg/mL; in [14], 3.91 µg/mL; in assay [17], greater than 50 µg/mL; in assay [18] it was greater than 50 µg/mL; in assay [19], 7.49 µg/mL; in [20] it was greater than 50 µg/mL. Further, the half-inhibitory concentration (IC50) in assay [8] was 0.07 µg/mL; in [9], 0.75 µg/mL; in assay [10] it was 0.54 µg/mL; in assay [11] it was 24.8 µg/mL.

1495_C14 (PGC14) (antibody): the IC50, pseudovirus neutralization in assay [1] was 28.6 µg/mL; in assay [2] it was greater than 50 µg/mL; in assay [15], greater than 50 µg/mL; in assay [16], greater than 50 µg/mL. In addition, the IC50 (µg/ml), pseudovirus neutralization in assay [3] was greater than 50 µg/mL; in assay [4] it was 6 µg/mL; in assay [5], greater than 50 µg/mL; in [6] it was greater than 50 µg/mL; in assay [7] it was greater than 50 µg/mL; in [12] it was 27 µg/mL. Moreover, the IC50 (µg/ml), pseudovirus neutralization in assay [13], in assay [14], in assay [17], in assay [18], in [19] and in [20] was greater than 50 µg/mL throughout. The IC50 is greater than 50 µg/mL in assay [8], greater than 50 µg/mL in assay [9], 45 µg/mL in assay [10] and greater than 50 µg/mL in [11].

The values are drawn from US20250320281A1.
